Experimental data as given in publication PMC6282620, “Structural and biochemical characterization of Plasmodium falciparum Hsp70‐x reveals functional versatility of its C‐terminal EEVN motif” (Proteins, 2018).

Experiments:
[1] = target: PfHsp70‐x C‐terminal truncated version with a missing EEVN motif (Plasmodium falciparum); experiment: SPR; PfHsp70‐x or PfHsp70‐xT immobilised on ProteOn GLC chips, hHop as analyte at 125-2000 nM, 25°C, PBS‐Tween pH 7.4, no nucleotide, Langmuir model
[2] = target: Plasmodium falciparum Hsp70‐x (full length) (Plasmodium falciparum); experiment: as above
[3] = target: PfHsp70‐x C‐terminal truncated version with a missing EEVN motif (Plasmodium falciparum); experiment: SPR; PfHsp70‐x or PfHsp70‐xT immobilised on ProteOn GLC chips, hHop as analyte at 125-2000 nM, 25°C, PBS‐Tween pH 7.4, with 5 mM ADP, Langmuir model
[4] = target: Plasmodium falciparum Hsp70‐x (full length) (Plasmodium falciparum); experiment: as above
[5] = target: PfHsp70‐x C‐terminal truncated version with a missing EEVN motif (Plasmodium falciparum); experiment: SPR; PfHsp70‐x or PfHsp70‐xT immobilised on ProteOn GLC chips, hHop as analyte at 125-2000 nM, 25°C, PBS‐Tween pH 7.4, with 5 mM ATP, Langmuir model
[6] = target: Plasmodium falciparum Hsp70‐x (full length) (Plasmodium falciparum); experiment: as above

**Q.** Which Kd [1] does the source give for “human Hsp70‐Hsp90 organizing protein (from UniProt P31948 1-543) (natural protein)” here?
**A.** The Kd was 2100 nM.

**Q.** And the koff [1]?
**A.** The koff was 1.01e-05 s⁻¹.

**Q.** What about the kon [1] of the same substance?
**A.** The kon was 24.7 M⁻¹ s⁻¹.

**Q.** And the Kd [2]?
**A.** The Kd was 30.1 nM.

**Q.** What about the koff [2] of the same substance?
**A.** The koff was 2.3e-05 s⁻¹.

**Q.** And the kon [2]?
**A.** Its kon is 4300 M⁻¹ s⁻¹.

**Q.** What about the Kd [3] of the same substance?
**A.** Its Kd is 1660 nM.

**Q.** And the koff [3]?
**A.** Its koff is 2.1e-05 s⁻¹.

**Q.** And the kon [3]?
**A.** Its kon is 42.6 M⁻¹ s⁻¹.

**Q.** What about the Kd [4] of the same substance?
**A.** The Kd was 23.1 nM.

**Q.** What about the koff [4] of the same substance?
**A.** The koff was 3.7e-05 s⁻¹.

**Q.** And the kon [4]?
**A.** Its kon is 3300 M⁻¹ s⁻¹.

**Q.** And the Kd [5]?
**A.** The Kd was 41000 nM.

**Q.** What about the koff [5] of the same substance?
**A.** Its koff is 0.00032 s⁻¹.

**Q.** What about the kon [5] of the same substance?
**A.** The kon was 54.1 M⁻¹ s⁻¹.

**Q.** And the Kd [6]?
**A.** Its Kd is 380 nM.

**Q.** And the koff [6]?
**A.** Its koff is 0.00044 s⁻¹.

**Q.** What about the kon [6] of the same substance?
**A.** The kon was 3470 M⁻¹ s⁻¹.
